Holding throughout (test): two-hybrid library CCmax;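 further: natural log of median RNA to DNA barcode read ratio; higher means stronger binding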
In one assay the target is T1, 4H1391-AA.
T1 chain: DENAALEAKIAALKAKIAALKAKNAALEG
The note with it: mean of both orientations.

In another assay the target is T2, 4H189-AA.
T2 chain: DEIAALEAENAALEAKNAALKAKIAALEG
The note with it: mean of both orientations.

The target in a further assay is T3, 4H2742-AA.
T3 chain: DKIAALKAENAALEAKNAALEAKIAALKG
The note with it: mean of both orientations.

A further assay concerns the target T4, 4H3121-AA.
T4 chain: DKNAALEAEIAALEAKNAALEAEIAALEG
The note with it: mean of both orientations.

A further assay has as its target T5, 4H3591-AA.
T5 chain: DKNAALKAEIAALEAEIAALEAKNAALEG
Particulars: mean of both orientations.

In a further assay the target is T6, 4H1142-AA.
T6 chain: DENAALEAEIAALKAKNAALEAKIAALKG

Another assay concerns the target T7, 4H2290-AA.
T7 chain: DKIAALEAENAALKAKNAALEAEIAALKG
The note with it: mean of both orientations.

Another assay deals with T8, APC1015-AA.
T8 chain: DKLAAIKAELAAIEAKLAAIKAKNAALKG

The target of another assay is T9, APC1434-AA.
T9 chain: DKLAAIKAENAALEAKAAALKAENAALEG
Particulars: mean of both orientations.

The target in the next assay is T10, APC4011-AA.
T10 chain: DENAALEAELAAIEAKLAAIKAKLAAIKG
Particulars: mean of both orientations.

The target of another assay is T11, APC7099-AA.
T11 chain: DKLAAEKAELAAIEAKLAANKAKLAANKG
The note with it: mean of both orientations.

The next assay concerns the target T12, APC8910-AA.
T12 chain: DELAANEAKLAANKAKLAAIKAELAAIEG
The note with it: mean of both orientations.

For a further assay, the target named is T13, O7-AA.
T13 chain: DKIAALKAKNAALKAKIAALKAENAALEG
The note with it: mean of both orientations.

The next assay addresses T14, P6-AA-12HGe-Q.
T14 chain: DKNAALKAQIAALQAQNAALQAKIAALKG
Particulars: mean of both orientations.

The next assay concerns the target T15, P6-AA-12HGe-W.
T15 chain: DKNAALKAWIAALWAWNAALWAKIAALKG
The note with it: mean of both orientations.

The next assay deals with T16, P6-AA-1HAA-D.
T16 chain: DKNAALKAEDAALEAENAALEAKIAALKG
The note with it: mean of both orientations.

A further assay addresses T17, P6-AA-1HAA-H.
T17 chain: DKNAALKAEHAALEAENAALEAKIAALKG
Particulars: mean of both orientations.

A further assay deals with T18, P6-AA-1HAA-K.
T18 chain: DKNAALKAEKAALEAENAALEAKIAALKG
Particulars: mean of both orientations.

The target of another assay is T19, P6-AA-1HAA-T.
T19 chain: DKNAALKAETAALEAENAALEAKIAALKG
Particulars: mean of both orientations.

Another assay has as its target T20, P6-AA-1HGe-D.
T20 chain: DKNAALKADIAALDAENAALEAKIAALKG
Particulars: mean of both orientations.

A further assay deals with T21, P6-AA-1HGe-T.
T21 chain: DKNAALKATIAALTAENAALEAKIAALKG
The note with it: mean of both orientations.

A further assay has as its target T22, 4H122-AA.
T22 chain: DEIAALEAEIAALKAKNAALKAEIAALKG
The note with it: mean of both orientations.

The target of another assay is T23, P6-AA-12HAA-E.
T23 chain: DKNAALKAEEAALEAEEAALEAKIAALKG
Particulars: mean of both orientations.

A further assay addresses T24, P6-AA-12HAA-L.
T24 chain: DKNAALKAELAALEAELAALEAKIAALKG
The note with it: mean of both orientations.

Another assay deals with T25, P6-AA-12HAA-S.
T25 chain: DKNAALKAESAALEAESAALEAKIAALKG
Particulars: mean of both orientations.

In a further assay the target is T26, 4H1350-AA.
T26 chain: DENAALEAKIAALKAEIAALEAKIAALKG

Another assay concerns the target T27, 4H1710-AA.
T27 chain: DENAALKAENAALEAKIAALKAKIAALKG
The note with it: mean of both orientations.

For another assay, the target named is T28, 4H2187-AA.
T28 chain: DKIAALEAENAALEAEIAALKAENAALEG
Particulars: mean of both orientations.

The target of the next assay is T29, 4H2211-AA.
T29 chain: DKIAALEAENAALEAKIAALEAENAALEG
Particulars: mean of both orientations.

The next assay addresses T30, 4H233-AA.
T30 chain: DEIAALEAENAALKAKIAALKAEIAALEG
The note with it: mean of both orientations.

A further assay deals with T31, 4H2608-AA.
T31 chain: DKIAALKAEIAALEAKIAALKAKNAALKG
The note with it: mean of both orientations.

The next assay deals with T32, 4H2758-AA.
T32 chain: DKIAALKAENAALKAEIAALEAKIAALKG
Particulars: mean of both orientations.

The target in another assay is T33, 4H2935-AA.
T33 chain: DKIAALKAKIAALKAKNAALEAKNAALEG
The note with it: mean of both orientations.

For another assay, the target named is T34, 4H775-AA.
T34 chain: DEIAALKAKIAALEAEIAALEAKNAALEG
Particulars: mean of both orientations.

A further assay has as its target T35, 4H324-AA.
T35 chain: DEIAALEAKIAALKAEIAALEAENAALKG
The note with it: mean of both orientations.

Another assay concerns the target T36, P5-AA-12HGe-H.
T36 chain: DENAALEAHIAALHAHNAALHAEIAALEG
Particulars: mean of both orientations.

In a further assay the target is T37, P5-AA-12HGe-M.
T37 chain: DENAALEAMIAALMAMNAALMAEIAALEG
The note with it: mean of both orientations.

Another assay concerns the target T38, P5-AA-12HGe-T.
T38 chain: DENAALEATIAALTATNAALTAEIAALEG
Particulars: mean of both orientations.

A further assay deals with T39, P5-AA-1HAA-A.
T39 chain: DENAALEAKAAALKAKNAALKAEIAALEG
The note with it: mean of both orientations.

The target of another assay is T40, P5-AA-1HAA-Y.
T40 chain: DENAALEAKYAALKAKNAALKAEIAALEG
Particulars: mean of both orientations.

A further assay concerns the target T41, P5-AA-1HGe-H.
T41 chain: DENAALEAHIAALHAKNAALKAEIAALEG
The note with it: mean of both orientations.

A further assay has as its target T42, P5-AA-1HGe-M.
T42 chain: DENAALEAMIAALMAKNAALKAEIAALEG
The note with it: mean of both orientations.

Turning to DENAALEAEIAALEAKIAALEAKNAALKG [4H1064-AA], the interaction score with 4H1391-AA is 1.33; with 4H189-AA, -1.4; with 4H2742-AA, -1.78; with 4H3121-AA it was -1.6; with 4H3591-AA, 0.232.
DENAALEAEIAALKAKNAALEAKIAALKG [4H1142-AA] had an interaction score with 4H1142-AA of 0.123.
With DENAALKAKIAALEAKNAALEAKIAALEG [4H1845-AA], the interaction score with 4H2290-AA was -1.92; with APC1015-AA, -1.28; with APC1434-AA, -1.56; with APC4011-AA, -1.65; with APC7099-AA it was -1.48; with APC8910-AA, -1.69.
DEIAALEAENAALEAKIAALKAENAALEG [4H171-AA]: in the assay with O7-AA, the interaction score is 1.08.
With DENAALEAKIAALKAKNAALKAEIAALEG [4H1401-AA], the interaction score with P6-AA-12HGe-Q is 1.69; with P6-AA-12HGe-W it was -1.79; with P6-AA-1HAA-D it was 0.667; with P6-AA-1HAA-H, 2.06; in the assay with P6-AA-1HAA-K, 2.04; in the assay with P6-AA-1HAA-T, 1.96. In addition, the interaction score in the assay with P6-AA-1HGe-D was 1.88; with P6-AA-1HGe-T, 2.05.
Take DENAALEAENAALEAEIAALEAEIAALEG [4H1153-AA]: the interaction score with 4H122-AA was -1.61.
As to DENAALEAKIAALKAKIAALKAEIAALEG [4H1385-AA], the interaction score turned out to be 2.36 in the assay with P6-AA-12HAA-E, 2.03 in the assay with P6-AA-12HAA-L and 1.43 with P6-AA-12HAA-S.
Regarding DENAALEAKIAALKAEIAALEAKIAALKG [4H1350-AA], the interaction score with 4H1350-AA was 2.09; with 4H1710-AA, 0.556; in the assay with 4H2187-AA, -1.97; with 4H2211-AA, -1.32; with 4H233-AA, 0.257; in the assay with 4H2608-AA it was 1.38. For the same molecule, the results for the interaction score in the assay with 4H2758-AA, with 4H2935-AA and with 4H775-AA were -0.48, -0.765 and 1.63, respectively.
Turning to DEIAALEAENAALKAKNAALKAEIAALEG [4H249-AA], the interaction score in the assay with 4H324-AA was -1.59.
For the molecule DKNAALKAEIAALEAENAALEAKIAALKG [4H3606-AA], the interaction score in the assay with P5-AA-12HGe-H is 1.86; with P5-AA-12HGe-M, 1.77; in the assay with P5-AA-12HGe-T, 1.23; in the assay with P5-AA-1HAA-A, 2.07; with P5-AA-1HAA-Y, 2.23; with P5-AA-1HGe-H, 2.15. Moreover, the interaction score with P5-AA-1HGe-M worked out at 2.26.

The values are drawn from publication PMC10397247.
